From article PMC3173129

Biological target: Orai3 N-terminal peptide aa 52–65 (human) (UniProt Q9BRQ5)
Test: SPR

- response (resonance units) (resonance units): 207
Substance: Calmodulin from bovine testes (from UniProt P62157 1-149) (natural protein)
